Publication PMC4001850
Where “and” joins values, the source holds several entries; their conditions need not be identical. Equal values may be shown once. Read-outs that look alike come from different tables or passages of the source.

Columns and labels:
[1] = molecular target: eAβPP_(19-624), His-Patch thioredoxin fusion of the entire ectodomain of AβPP695 (82-kDa) (human) (UniProt P05067); assay: SAXS
Aβ_(1-42) peptide = assay: cross-linking
Aβ_(1-40) peptide [2] = assay: cross-linking
Aβ_(1-40) peptide [3] = assay: cross-linking; remark: listed apart in the source

stoichiometry N (Aβ molecules per eAβPP dimer) [1]	stoichiometry N (Aβ_(1-42) peptide)	stoichiometry N (Aβ_(1-40) peptide [2])	stoichiometry N (Aβ_(1-40) peptide [3])	Substance
6	3			Aβ_(1-42) peptide
8		2	12 and 18	Aβ_(1-40) peptide
